The numbers were not newly measured in patent US20100311759A1, “ANTIPARASITIC AGENT FOR FISH AND METHOD OF CONTROLLING PROLIFERATION OF FISH PARASITES” (NIPPON SUISAN KAISHA, LTD., priority 2007, published 2010), which cites them from elsewhere.

This series concerns White spot disease. To be noted: 40 mg per 1 kg of fish body weight orally per day, 28-day experimental period.

B1: lactoferrin: marketed as an additive for fisheries; thought to increase non-specific biophylactic ability of host fish (protein, UniProt P24627 20-708, looked up)
Lactotransferrin: APRKNVRWCTISQPEWFKCRRWQWRMKKLGAPSITCVRRAFALECIRAIAEKKADAVTLDGGMVFEAGRDPYKLRPVAAEIYGTKESPQTHYYAVAVVKKGSNFQLDQLQGRKSCHTGLGRSAGWIIPMGILRPYLSWTESLEPLQGAVAKFFSASCVPCIDRQAYPNLCQLCKGEGENQCACSSREPYFGYSGAFKCLQDGAGDVAFVKETTVFENLPEKADRDQYELLCLNNSRAPVDAFKECHLAQVPSHAVVARSVDGKEDLIWKLLSKAQEKFGKNKSRSFQLFGSPPGQRDLLFKDSALGFLRIPSKVDSALYLGSRYLTTLKNLRETAEEVKARYTRVVWCAVGPEEQKKCQQWSQQSGQNVTCATASTTDDCIVLVLKGEADALNLDGGYIYTAGKCGLVPVLAENRKSSKHSSLDCVLRPTEGYLAVAVVKKANEGLTWNSLKDKKSCHTAVDRTAGWNIPMGLIVNQTGSCAFDEFFSQSCAPGADPKSRLCALCAGDDQGLDKCVPNSKEKYYGYTGAFRCLAEDVGDVAFVKNDTVWENTNGESTADWAKNLNREDFRLLCLDGTRKPVTEAQSCHLAVAPNHAVVSRSDRAAHVKQVLLHQQALFGKNGKNCPDKFCLFKSETKNLLFNDNTECLAKLGGRPTYEEYLGTEYVTAIANLKKCSTSPLLEACAFLTR
For B1, the infection entry is “no infection was observed”.
